{"source": "paper PMC12499412", "about": "“Engineering DNA Origami Captors for TGFβ1 Sequestration to Enhance Tumor Immune Modulation and Therapy”", "key": {"[1]": {"biological_target": "IFN-γ (human, UniProt P01579 24-166)", "sequence (P01579 24-166)": "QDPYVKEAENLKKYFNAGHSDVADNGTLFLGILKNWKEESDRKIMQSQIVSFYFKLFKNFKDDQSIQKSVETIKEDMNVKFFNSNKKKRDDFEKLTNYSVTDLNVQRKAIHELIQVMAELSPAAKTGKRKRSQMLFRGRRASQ", "assay": "MST; aptamer:protein 1:50; MST: 30 nM Cy5-a'-Apt final with 45 pM (4.5 pM in Fig S3 legend) to 1.5 uM protein, 37 °C, 2 h; specificity MST 5 nM aptamer, 0.25 uM protein; buffer, salt and", "conditions": "protein: commercial; chain copies: 2; label: 5'-Cy5; annealed 95 °C 5 min, 4 °C 30 min"}, "[2]": {"biological_target": "TGFβ1 (active, mature) (human, UniProt P01137 279-390)", "sequence (P01137 279-390)": "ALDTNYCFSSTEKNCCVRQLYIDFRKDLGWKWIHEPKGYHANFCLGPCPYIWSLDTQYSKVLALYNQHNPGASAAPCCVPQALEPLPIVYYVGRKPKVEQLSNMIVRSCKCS", "assay": "MST; 37 °C, 2 h; MST: 30 nM Cy5-a'-Apt final with 45 pM (4.5 pM in Fig S3 legend) to 1.5 uM protein, 37 °C, 2 h; specificity MST 5 nM aptamer, 0.25 uM protein; buffer, salt and", "conditions": "protein: commercial; chain copies: 2; label: 5'-Cy5; annealed 95 °C 5 min, 4 °C 30 min"}}}
{"binder": "Cy5-a'-Apt (ssDNA, phosphorothioates at A and C bases (positions marked * in Table S3)) DNA: TCGCTCGGCTTCACGAGATTCGTGTCGTTGTGTCCTGTACCCGCCTTGACCAGTCACTCTAGAGCATCCGGACTGTAGATGGAGTGTGGTGTGAAG", "values": [{"measurement": "binding result", "setting": "[1]", "value": "no binding"}, {"measurement": "Kd", "setting": "[2]", "value": 28, "unit": "nM"}]}
